The source of these data is US6849258.

The target in test [1] is human CD2 (CD2 antigen on human PBMC, on COS cells transfected with the entire CD2 molecule, and on CD2-expressing Jurkat cells) (human) (UniProt P06729). Nature of the test: two-colour flow cytometry of human PBMC, biotinylated LO-CD2a (FL1) and Leu-5b-PE (FL2); upper left quadrant. On the technique in general: In flow cytometry, cells or beads pass a laser one at a time.

Test [2] shares this target. Nature of the test: two-colour flow cytometry of human PBMC, biotinylated LO-CD2a (FL1) and Leu-5b-PE (FL2); upper right quadrant.

Chain of UniProt P06729 (P06729 25-351): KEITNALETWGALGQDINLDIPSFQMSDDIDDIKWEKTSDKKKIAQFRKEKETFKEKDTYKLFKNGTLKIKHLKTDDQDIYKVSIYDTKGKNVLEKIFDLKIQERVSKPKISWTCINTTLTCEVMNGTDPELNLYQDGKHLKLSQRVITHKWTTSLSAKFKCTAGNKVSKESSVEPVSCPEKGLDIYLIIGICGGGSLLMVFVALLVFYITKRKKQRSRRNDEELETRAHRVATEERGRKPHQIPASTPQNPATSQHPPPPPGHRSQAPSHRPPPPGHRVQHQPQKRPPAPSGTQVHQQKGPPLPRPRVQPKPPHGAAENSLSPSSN

In test [1], “Leu-5b, mouse anti-human CD2 monoclonal antibody (Becton Dickinson)” gave a % gated (quadrant 1UL) of 23.2% and a Y mean (quadrant 1UL) of 285. The same substance gave a Y mean (quadrant 2UR) in test [2] of 631.
